One block for each molecule: values may come before it.
How the values were obtained:
[1] = tested on: S. cerevisiae culture; conditions: cerulenin added to the culture; cited from earlier work
[2] = Lipase screening for treatment of ground whole corn kernels prior to liquefaction (Example 25); type: biochemical; conditions: 55° C., pH 5.8
Description: Seven reaction mixtures containing tap water (67.9 g) and ground whole corn kernels (35.1 g wet wt., ground with 1.0 mm screen using a hammer mill) at pH 5.8 were stirred at 55° C. in stoppered flasks. A 3-mL sample (t=0 h) was removed from each flask and the sample immediately frozen on dry ice, then ca. 0.5 mL of 10 mM sodium phosphate buffer (pH 7.0) containing 1 mg total soluble protein (10 ppm final concentration in reaction mixture) of one of the following lipases (Novozymes) were added to one of each flask: Lipolase® 100 L, Lipex® 100L, Lipoclean® 2000T, Lipozyme® CALB L, Novozyme® CALA L, and Palatase 20000L; no lipase was added to the seventh flask. The resulting mixtures were stirred at 55° C. in stoppered flasks, and 3-mL samples were withdrawn from each reaction mixture at 1 h, 2 h, 4 h and 6 h and immediately frozen in dry ice until analyzed for wt % lipid (derivatized as fatty acid methyl esters, FAME) and for wt % free fatty acid (FFA, derivatized as fatty acid methyl esters, FAME) according to the method described by Reference 1, and the percent free fatty acid content was calculated relative to the total combined concentrations of lipid and free fatty acid was determined for each sample.

[3] = Lipase treatment of ground whole corn kernels prior to liquefaction, then mixing with oleyl alcohol (Example 24); type: biochemical
Description: Tap water (1377.6 g) was added into each of two jacketed 2-L resin kettles, then 711.9 g wet weight (625.8 g dry weight) of ground whole corn kernels (1.0 mm screen on hammer mill) was added to each kettle with stirring. Each mixture was heated to 55° C. with stirring at 300 rpm, and the pH adjusted to 5.8 with 2 N sulfuric acid. To each mixture was added 21.0 g of an aqueous solution containing 1.008 g of Spezyme®-FRED L (Genencor®, Palo Alto, Calif.). To one mixture was then added 10.5 mL of aqueous solution of Lipolase® 100L Solution (21 mg total soluble protein, 10 ppm lipase final concentration) and to the second mixture was added 1.05 mL of aqueous solution of Lipolase® 100L Solution (2.1 mg total soluble protein, 1.0 ppm lipase final concentration). Samples were withdrawn from each reaction mixture at 1 h, 2 h, 4 h and 6 h at 55° C., then the temperature of the mixture was increased to 85° C. with stirring at 600 rpm and pH 5.8, and a sample was taken when the mixture first reached 85° C. After 120 minutes at 85° C., a sample was taken and the mixtures were cooled to 50° C. and final samples of the resulting liquefied corn mash were transferred to 50-mL polypropylene centrifuge tubes; all samples were stored frozen at −80° C.
In two separate reactions, a 50 g sample of the 10 ppm lipase-treated liquefied corn mash or a 55 g sample of the 1.0 ppm lipase-treated liquefied corn mash prepared as described above was mixed with oleyl alcohol (OA) (38 g) at 30° C. for 20 h, then the liquefied mash and OA in each reaction mixture were separated by centrifugation and each phase analyzed for wt % lipid (derivatized as fatty acid methyl esters, FAME) and for wt % free fatty acid (FFA, derivatized as fatty acid methyl esters, FAME) according to the method described by Reference 1. The % FFA in the OA phase of the liquefied mash/OA mixture prepared using heat inactivation of 10 ppm lipase during liquefaction was 98% at 20 h, compared to only 62% FFA in the OA phase of the liquefied mash/OA mixture prepared using heat inactivation of 1.0 ppm lipase during liquefaction.

[4] = Heat inactivation of lipase in lipase-treated liquefied corn mash mixed with oleyl alcohol (Example 22); type: biochemical
Description: Tap water (918.4 g) was added to a jacketed 2-L resin kettle, then 474.6 g wet weight (417.6 g dry weight) of ground whole corn kernels (1.0 mm screen on hammer mill) was added with stirring. The mixture was heated to 55° C. with stirring at 300 rpm, and the pH adjusted to 5.8 with 2 N sulfuric acid. To the mixture was added 14.0 g of an aqueous solution containing 0.672 g of Spezyme®-FRED L (Genencor®, Palo Alto, Calif.), and the temperature of the mixture increased to 85° C. with stirring at 600 rpm and pH 5.8. After 120 minutes at 85° C., the mixture was cooled to 50° C. and 45.0 mL aliquots of the resulting liquefied corn mash were transferred to 50-mL polypropylene centrifuge tubes and stored frozen at −80° C.
In a first reaction, 50 g of liquefied corn mash prepared as described above was mixed with 10 ppm Lipolase® 100 L (Novozymes) for 6 h at 55° C. and with no inactivation of lipase at 85° C. for 1 h, the mixture was cooled to 30° C. In a second reaction, 50 g of liquefied corn mash was mixed with 10 ppm Lipolase® for 6 h at 55° C., then heated to 85° C. for 1 h (lipase inactivation), then cooled to 30° C. In a third reaction, 50 g of liquefied corn mash without added lipase was mixed for 6 h at 55° C., and with no heating at 85° C. for 1 h, the mixture was cooled to 30° C., 38 g of oleyl alcohol was added, and the resulting mixture stirred for 73 h at 30° C. In a fourth reaction, 50 g of liquefied corn mash without added lipase was mixed for 6 h at 55° C., then heated to 85° C. for 1 h, then cooled to 30° C. Each of the four reaction mixtures was sampled at 6 h, then 38 g of oleyl alcohol added, and the resulting mixtures stirred at 30° C. and sampled at 25 h and 73 h. Samples (both liquefied mash and oleyl alcohol (OA)) were analyzed for wt % lipid (derivatized as fatty acid methyl esters, FAME) and for wt % free fatty acid (FFA, derivatized as fatty acid methyl esters, FAME) according to the method described by Reference 1.

[5] = 0 h (sample before lipase addition)

Molecule: C/C=C/C/C=C/CCC(=O)[C@H]1O[C@H]1C(N)=O [Cerulenin, cerulenin]
growth of S. cerevisiae culture [1]: inhibition of the growth

% FFA [2, 5]: 33%
% FFA ([2]; 1 h, 10 ppm lipase): 56%
% FFA ([2]; 2 h, 10 ppm lipase): 74%
% FFA ([2]; 4 h, 10 ppm lipase): 76%
% FFA ([2]; 6 h, 10 ppm lipase): 79%
% FFA ([3]; 1.0 ppm lipase at 55° C., 1 h, pre-liquefaction): 54%
% FFA ([3]; 1.0 ppm lipase at 55° C., 2 h, pre-liquefaction): 51%
% FFA ([3]; 1.0 ppm lipase at 55° C., 4 h, pre-liquefaction): 58%
% FFA ([3]; 1.0 ppm lipase at 55° C., 6 h, pre-liquefaction): 57%
% FFA ([3]; 1.0 ppm lipase, 0 h, 85° C., liq. mash): 49%
% FFA ([3]; 1.0 ppm lipase, 2 h, 85° C., liq. mash): 50%
% FFA ([3]; 1.0 ppm lipase, mix with OA, 20 h, 30° C., OA): 62%
% FFA ([3]; 1.0 ppm lipase, mix with OA, 20 h, 30° C., liq. mash): 20%
% FFA ([3]; 10 ppm lipase at 55° C., 1 h, pre-liquefaction): 74%
% FFA ([3]; 10 ppm lipase at 55° C., 2 h, pre-liquefaction): 77%
% FFA ([3]; 10 ppm lipase at 55° C., 4 h, pre-liquefaction): 82%
% FFA ([3]; 10 ppm lipase at 55° C., 6 h, pre-liquefaction): 87%
% FFA ([3]; 10 ppm lipase, 0 h, 85° C., liq. mash): 86%
% FFA ([3]; 10 ppm lipase, 2 h, 85° C., liq. mash): 85%
% FFA ([3]; 10 ppm lipase, mix with OA, 20 h, 30° C., OA): 98%
% FFA ([3]; 10 ppm lipase, mix with OA, 20 h, 30° C., liq. mash): 48%
% FFA ([4]; 10 ppm active lipase, no 85° C. heat treatment, 6 h, liq. mash): 89%
% FFA ([4]; 10 ppm active lipase, no 85° C. heat treatment, 25 h, OA): 40%
% FFA ([4]; 10 ppm active lipase, no 85° C. heat treatment, 25 h, liq. mash): 20%
% FFA ([4]; 10 ppm active lipase, no 85° C. heat treatment, 73 h, OA): 21%
% FFA ([4]; 10 ppm active lipase, no 85° C. heat treatment, 73 h, liq. mash): 18%
% FFA ([4]; 10 ppm inactive lipase, 85° C. heat treatment, 6 h, liq. mash): 89%
% FFA ([4]; 10 ppm inactive lipase, 85° C. heat treatment, 25 h, OA): 99%
% FFA ([4]; 10 ppm inactive lipase, 85° C. heat treatment, 25 h, liq. mash): 53%
% FFA ([4]; 10 ppm inactive lipase, 85° C. heat treatment, 73 h, OA): 95%
% FFA ([4]; 10 ppm inactive lipase, 85° C. heat treatment, 73 h, liq. mash): 62%
B1: Lipolase ® 100 L: commercial lipase preparation available from Novozymes (protein, UniProt O59952 23-291, looked up)
Lipase: EVSQDLFNQFNLFAQYSAAAYCGKNNDAPAGTNITCTGNACPEVEKADATFLYSFEDSGVGDVTGFLALDNTNKLIVLSFRGSRSIENWIGNLNFDLKEINDICSGCRGHDGFTSSWRSVADTLRQKVEDAVREHPDYRVVFTGHSLGGALATVAGADLRGNGYDIDVFSYGAPRVGNRAFAEFLTVQTGGTLYRITHTNDIVPRLPPREFGYSHSSPEYWIKSGTLVPVTRNDIVKIEGIDATGGNNQPNIPDIPAHLWYFGLIGTCL

% FFA [2, 5]: 37%
% FFA ([2]; 1 h, 10 ppm lipase): 49%
% FFA ([2]; 2 h, 10 ppm lipase): 59%
% FFA ([2]; 4 h, 10 ppm lipase): 62%
% FFA ([2]; 6 h, 10 ppm lipase): 66%
B2: Palatase ® 20000 L: commercial lipase preparation available from Novozymes (protein, UniProt P19515 95-363, looked up)
Lipase: SIDGGIRAATSQEINELTYYTTLSANSYCRTVIPGATWDCIHCDATEDLKIIKTWSTLIYDTNAMVARGDSEKTIYIVFRGSSSIRNWIADLTFVPVSYPPVSGTKVHKGFLDSYGEVQNELVATVLDQFKQYPSYKVAVTGHSLGGATALLCALDLYQREEGLSSSNLFLYTQGQPRVGDPAFANYVVSTGIPYRRTVNERDIVPHLPPAAFGFLHAGEEYWITDNSPETVQVCTSDLETSDCSNSIVPFTSVLDHLSYFGINTGLCT

Source: patent US20140363865A1, “SUPPLEMENTATION OF FATTY ACIDS FOR IMPROVING ALCOHOL PRODUCTIVITY” (BUTAMAX ADVANCED BIOFUELS LLC, priority 2010, published 2014)
